Results taken from publication PMC9482650, “Quantitative fragmentomics allow affinity mapping of interactomes” (Nature Communications, 2022).

T1: TJP3_3, O95049
T1 sequence (O95049 375-456, limits assumed, looked up): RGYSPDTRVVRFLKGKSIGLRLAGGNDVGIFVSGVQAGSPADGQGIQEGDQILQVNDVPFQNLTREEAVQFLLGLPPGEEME

T2: SNTG2, Q9NY99
T2 sequence (Q9NY99 68-166, limits assumed, looked up): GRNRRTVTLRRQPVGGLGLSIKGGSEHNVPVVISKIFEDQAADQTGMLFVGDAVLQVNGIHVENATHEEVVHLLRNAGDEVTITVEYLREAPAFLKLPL

T3: PDZD7_3, Q9H5P4
T3 sequence (Q9H5P4 857-944, limits assumed, looked up): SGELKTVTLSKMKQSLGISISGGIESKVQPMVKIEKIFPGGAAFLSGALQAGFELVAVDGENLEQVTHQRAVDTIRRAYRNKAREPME

T4: FRMPD1, Q5SYB0
T4 sequence (Q5SYB0 52-145, limits assumed, looked up): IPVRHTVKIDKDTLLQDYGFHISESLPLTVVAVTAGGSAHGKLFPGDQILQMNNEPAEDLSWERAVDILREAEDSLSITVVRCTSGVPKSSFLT

T5: DVL3, Q92997
T5 sequence (Q92997 244-331, limits assumed, looked up): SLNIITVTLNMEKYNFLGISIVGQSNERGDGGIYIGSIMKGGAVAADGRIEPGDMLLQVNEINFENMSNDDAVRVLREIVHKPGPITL

T6: PTPN13_1, Q12923
T6 sequence (Q12923 1088-1188, limits assumed, looked up): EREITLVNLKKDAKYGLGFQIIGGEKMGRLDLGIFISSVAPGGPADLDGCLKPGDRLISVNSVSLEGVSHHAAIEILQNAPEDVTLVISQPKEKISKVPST

T7: RHPN1, Q8TCX5
T7 sequence (Q8TCX5 508-602, limits assumed, looked up): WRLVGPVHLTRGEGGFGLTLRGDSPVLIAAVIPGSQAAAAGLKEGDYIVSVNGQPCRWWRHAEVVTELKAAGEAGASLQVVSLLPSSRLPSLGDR

T8: LIN7C, Q9NUP9
T8 sequence (Q9NUP9 88-185, limits assumed, looked up): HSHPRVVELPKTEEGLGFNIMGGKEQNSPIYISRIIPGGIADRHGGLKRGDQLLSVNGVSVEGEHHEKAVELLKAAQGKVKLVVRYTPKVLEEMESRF

T9: SNTA1, Q13424
T9 sequence (Q13424 82-180, limits assumed, looked up): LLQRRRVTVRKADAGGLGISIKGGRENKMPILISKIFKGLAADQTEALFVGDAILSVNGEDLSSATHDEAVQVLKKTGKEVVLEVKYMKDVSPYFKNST

T10: TX1BP3, O14907
T10 sequence (O14907 10-122, limits assumed, looked up): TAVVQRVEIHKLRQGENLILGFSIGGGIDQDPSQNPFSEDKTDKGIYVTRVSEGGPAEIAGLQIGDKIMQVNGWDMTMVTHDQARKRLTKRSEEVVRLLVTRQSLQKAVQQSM

T11: APBA3_1, O96018
T11 sequence (O96018 389-490, limits assumed, looked up): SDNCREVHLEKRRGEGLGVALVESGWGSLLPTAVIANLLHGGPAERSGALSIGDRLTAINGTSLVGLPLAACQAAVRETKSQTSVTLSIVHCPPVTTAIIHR

T12: HTRA3, P83110
T12 sequence (P83110 354-453, limits assumed, looked up): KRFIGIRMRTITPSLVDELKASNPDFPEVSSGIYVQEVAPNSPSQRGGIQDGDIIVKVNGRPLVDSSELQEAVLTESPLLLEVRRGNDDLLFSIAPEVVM


Target: T1, TJP3_3, O95049
Experiment: holdup assay
Parameters: key: below the threshold = too weak to quantify, mostly under pKd 3.1 to 4
Conditions: plain residues with an end cap or a label only (N-terminal biotin on a linker: ado-ado)

Row | pKd | Binder
1 | 4.39 | SVISRREWYV [NECTIN3, Q9NQS3]

Target: ARHGEF12, Q9NZN5-2
Sequence (Q9NZN5 other isoform, or with tags, fused parts or gaps): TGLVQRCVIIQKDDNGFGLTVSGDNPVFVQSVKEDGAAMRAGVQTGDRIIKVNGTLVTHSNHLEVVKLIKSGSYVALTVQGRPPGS
Experiment: holdup assay
Parameters: key: below the threshold = too weak to quantify, mostly under pKd 3.1 to 4
Conditions: plain residues with an end cap or a label only (N-terminal biotin on a linker: ado-ado)

Row | pKd | Binder
2 | 3.64 | SVISRREWYV [NECTIN3, Q9NQS3]

Target: MAST1, Q9Y2H9
Sequence (Q9Y2H9 962-1065): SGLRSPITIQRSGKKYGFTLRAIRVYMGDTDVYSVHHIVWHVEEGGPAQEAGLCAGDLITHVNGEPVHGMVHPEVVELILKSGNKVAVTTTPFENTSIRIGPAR
Experiment: holdup assay
Parameters: key: below the threshold = too weak to quantify, mostly under pKd 3.1 to 4
Conditions: plain residues with an end cap or a label only (N-terminal biotin on a linker: ado-ado)

Row | pKd | Binder
3 | 4.34 | SVISRREWYV [NECTIN3, Q9NQS3]

Target: T2, SNTG2, Q9NY99
Experiment: holdup assay
Parameters: key: below the threshold = too weak to quantify, mostly under pKd 3.1 to 4
Conditions: plain residues with an end cap or a label only (N-terminal biotin on a linker: ado-ado)

Row | pKd | Binder
4 | below the threshold | SVISRREWYV [NECTIN3, Q9NQS3]

Target: T3, PDZD7_3, Q9H5P4
Experiment: holdup assay
Parameters: key: below the threshold = too weak to quantify, mostly under pKd 3.1 to 4
Conditions: plain residues with an end cap or a label only (N-terminal biotin on a linker: ado-ado)

Row | pKd | Binder
5 | below the threshold | SVISRREWYV [NECTIN3, Q9NQS3]

Target: T4, FRMPD1, Q5SYB0
Experiment: holdup assay
Parameters: key: below the threshold = too weak to quantify, mostly under pKd 3.1 to 4
Conditions: plain residues with an end cap or a label only (N-terminal biotin on a linker: ado-ado)

Row | pKd | Binder
6 | below the threshold | SVISRREWYV [NECTIN3, Q9NQS3]

Target: T5, DVL3, Q92997
Experiment: holdup assay
Parameters: key: below the threshold = too weak to quantify, mostly under pKd 3.1 to 4
Conditions: plain residues with an end cap or a label only (N-terminal biotin on a linker: ado-ado)

Row | pKd | Binder
7 | 4.69 | SVISRREWYV [NECTIN3, Q9NQS3]

Target: T6, PTPN13_1, Q12923
Experiment: holdup assay
Parameters: key: below the threshold = too weak to quantify, mostly under pKd 3.1 to 4
Conditions: plain residues with an end cap or a label only (N-terminal biotin on a linker: ado-ado)

Row | pKd | Binder
8 | below the threshold | SVISRREWYV [NECTIN3, Q9NQS3]

Target: T7, RHPN1, Q8TCX5
Experiment: holdup assay
Parameters: key: below the threshold = too weak to quantify, mostly under pKd 3.1 to 4
Conditions: plain residues with an end cap or a label only (N-terminal biotin on a linker: ado-ado)

Row | pKd | Binder
9 | below the threshold | SVISRREWYV [NECTIN3, Q9NQS3]

Target: T8, LIN7C, Q9NUP9
Experiment: holdup assay
Parameters: key: below the threshold = too weak to quantify, mostly under pKd 3.1 to 4
Conditions: plain residues with an end cap or a label only (N-terminal biotin on a linker: ado-ado)

Row | pKd | Binder
10 | 3.95 | SVISRREWYV [NECTIN3, Q9NQS3]

Target: PTPN3, P26045
Sequence (P26045 505-587): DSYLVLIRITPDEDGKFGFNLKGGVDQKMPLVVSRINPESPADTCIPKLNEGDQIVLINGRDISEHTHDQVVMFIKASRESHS
Experiment: holdup assay
Parameters: key: below the threshold = too weak to quantify, mostly under pKd 3.1 to 4
Conditions: plain residues with an end cap or a label only (N-terminal biotin on a linker: ado-ado)

Row | pKd | Binder
11 | 4.25 | SVISRREWYV [NECTIN3, Q9NQS3]

Target: Inadl_5, Q8NI35
Sequence (Q8NI35 673-780): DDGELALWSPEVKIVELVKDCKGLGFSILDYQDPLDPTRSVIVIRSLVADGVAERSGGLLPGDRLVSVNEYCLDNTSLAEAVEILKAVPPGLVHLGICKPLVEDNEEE
Experiment: holdup assay
Parameters: key: below the threshold = too weak to quantify, mostly under pKd 3.1 to 4
Conditions: plain residues with an end cap or a label only (N-terminal biotin on a linker: ado-ado)

Row | pKd | Binder
12 | 5.43 | SVISRREWYV [NECTIN3, Q9NQS3]

Target: FRMPD2_2, Q68DX3
Sequence (Q68DX3 944-1038): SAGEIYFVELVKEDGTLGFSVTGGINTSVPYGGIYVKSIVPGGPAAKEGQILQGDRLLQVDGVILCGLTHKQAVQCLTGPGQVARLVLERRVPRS
Experiment: holdup assay
Parameters: key: below the threshold = too weak to quantify, mostly under pKd 3.1 to 4
Conditions: plain residues with an end cap or a label only (N-terminal biotin on a linker: ado-ado)

Row | pKd | Binder
13 | 4.14 | SVISRREWYV [NECTIN3, Q9NQS3]

Target: GRIP2_3, Q9C0E4
Sequence (Q9C0E4 238-339): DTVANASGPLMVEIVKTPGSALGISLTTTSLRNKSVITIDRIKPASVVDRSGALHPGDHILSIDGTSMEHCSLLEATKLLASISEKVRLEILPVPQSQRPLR
Experiment: holdup assay
Parameters: key: below the threshold = too weak to quantify, mostly under pKd 3.1 to 4
Conditions: plain residues with an end cap or a label only (N-terminal biotin on a linker: ado-ado)

Row | pKd | Binder
14 | below the threshold | SVISRREWYV [NECTIN3, Q9NQS3]

Target: FRMPD2_1, Q68DX3
Sequence (Q68DX3 770-861): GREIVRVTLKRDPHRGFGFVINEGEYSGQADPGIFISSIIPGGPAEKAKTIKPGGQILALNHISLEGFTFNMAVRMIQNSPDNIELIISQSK
Experiment: holdup assay
Parameters: key: below the threshold = too weak to quantify, mostly under pKd 3.1 to 4
Conditions: plain residues with an end cap or a label only (N-terminal biotin on a linker: ado-ado)

Row | pKd | Binder
15 | 4.51 | SVISRREWYV [NECTIN3, Q9NQS3]

Target: DLG2_3, Q15700
Experiment: holdup assay
Parameters: key: below the threshold = too weak to quantify, mostly under pKd 3.1 to 4
Conditions: plain residues with an end cap or a label only (N-terminal biotin on a linker: ado-ado)

Row | pKd | Binder
16 | 4.05 | SVISRREWYV [NECTIN3, Q9NQS3]

Target: T9, SNTA1, Q13424
Experiment: holdup assay
Parameters: key: below the threshold = too weak to quantify, mostly under pKd 3.1 to 4
Conditions: plain residues with an end cap or a label only (N-terminal biotin on a linker: ado-ado)

Row | pKd | Binder
17 | 3.48 | SVISRREWYV [NECTIN3, Q9NQS3]

Target: T10, TX1BP3, O14907
Experiment: holdup assay
Parameters: key: below the threshold = too weak to quantify, mostly under pKd 3.1 to 4
Conditions: plain residues with an end cap or a label only (N-terminal biotin on a linker: ado-ado)

Row | pKd | Binder
18 | below the threshold | SVISRREWYV [NECTIN3, Q9NQS3]

Target: T11, APBA3_1, O96018
Experiment: holdup assay
Parameters: key: below the threshold = too weak to quantify, mostly under pKd 3.1 to 4
Conditions: plain residues with an end cap or a label only (N-terminal biotin on a linker: ado-ado)

Row | pKd | Binder
19 | below the threshold | SVISRREWYV [NECTIN3, Q9NQS3]

Target: FRMPD3, Q5JV73
Sequence (Q5JV73 12-100): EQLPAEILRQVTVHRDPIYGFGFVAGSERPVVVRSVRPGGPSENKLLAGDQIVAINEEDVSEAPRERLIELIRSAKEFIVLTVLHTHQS
Experiment: holdup assay
Parameters: key: below the threshold = too weak to quantify, mostly under pKd 3.1 to 4
Conditions: plain residues with an end cap or a label only (N-terminal biotin on a linker: ado-ado)

Row | pKd | Binder
20 | 4.06 | SVISRREWYV [NECTIN3, Q9NQS3]

Target: Inadl_4, Q8NI35
Sequence (Q8NI35 547-651): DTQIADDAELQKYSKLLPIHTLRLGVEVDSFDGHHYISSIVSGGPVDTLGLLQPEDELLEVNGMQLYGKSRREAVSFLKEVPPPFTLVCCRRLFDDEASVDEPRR
Experiment: holdup assay
Parameters: key: below the threshold = too weak to quantify, mostly under pKd 3.1 to 4
Conditions: plain residues with an end cap or a label only (N-terminal biotin on a linker: ado-ado)

Row | pKd | Binder
21 | below the threshold | SVISRREWYV [NECTIN3, Q9NQS3]

Target: T12, HTRA3, P83110
Experiment: holdup assay
Parameters: key: below the threshold = too weak to quantify, mostly under pKd 3.1 to 4
Conditions: plain residues with an end cap or a label only (N-terminal biotin on a linker: ado-ado)

Row | pKd | Binder
22 | 4.99 | SVISRREWYV [NECTIN3, Q9NQS3]

Target: GORASP1, Q9BQQ3
Sequence (Q9BQQ3 1-208): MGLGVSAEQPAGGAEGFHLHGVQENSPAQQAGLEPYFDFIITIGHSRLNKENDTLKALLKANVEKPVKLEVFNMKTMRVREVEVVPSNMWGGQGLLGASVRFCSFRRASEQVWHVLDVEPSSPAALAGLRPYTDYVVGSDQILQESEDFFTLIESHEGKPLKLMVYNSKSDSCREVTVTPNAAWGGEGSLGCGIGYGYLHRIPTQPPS
Experiment: holdup assay
Parameters: key: below the threshold = too weak to quantify, mostly under pKd 3.1 to 4
Conditions: plain residues with an end cap or a label only (N-terminal biotin on a linker: ado-ado)

Row | pKd | Binder
23 | 4.63 | SVISRREWYV [NECTIN3, Q9NQS3]

Target: PDZRN4_1, Q6ZMN7
Sequence (Q6ZMN7 213-318): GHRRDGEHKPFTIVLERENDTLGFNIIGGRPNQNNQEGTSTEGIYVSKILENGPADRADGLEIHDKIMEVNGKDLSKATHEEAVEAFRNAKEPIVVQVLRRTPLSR
Experiment: holdup assay
Parameters: key: below the threshold = too weak to quantify, mostly under pKd 3.1 to 4
Conditions: plain residues with an end cap or a label only (N-terminal biotin on a linker: ado-ado)

Row | pKd | Binder
24 | below the threshold | SVISRREWYV [NECTIN3, Q9NQS3]

Target: MAGI2_4, Q86UL8
Sequence (Q86UL8 772-865): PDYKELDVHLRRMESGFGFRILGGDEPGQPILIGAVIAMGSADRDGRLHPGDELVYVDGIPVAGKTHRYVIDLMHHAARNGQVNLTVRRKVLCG
Experiment: holdup assay
Parameters: key: below the threshold = too weak to quantify, mostly under pKd 3.1 to 4
Conditions: plain residues with an end cap or a label only (N-terminal biotin on a linker: ado-ado)

Row | pKd | Binder
25 | 4.11 | SVISRREWYV [NECTIN3, Q9NQS3]
